One block for each binder: values may come before it.
Columns and labels:
Assay in all cases: alanine scan, flow cytometry, HEK293-T;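 note: antibody binding to each alanine-substituted CD33 mutant expressed transiently in HEK293-T, read as fluorescence minus background, mean of duplicates, relative to wild-type CD33 set as 100%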
[1] = biological target: human CD33 T222A (human, UniProt P20138 18-364)
[2] = biological target: human CD33 I242A (human, UniProt P20138 18-364)
[3] = biological target: human CD33 K215A (human, UniProt P20138 18-364)
[4] = biological target: human CD33 E170A (human, UniProt P20138 18-364)
[5] = biological target: human CD33 G207A (human, UniProt P20138 18-364)
[6] = biological target: human CD33 Q204A (human, UniProt P20138 18-364)
[7] = biological target: human CD33 L210A (human, UniProt P20138 18-364)
[8] = biological target: human CD33 P238A (human, UniProt P20138 18-364)
[9] = biological target: human CD33 P184A (human, UniProt P20138 18-364)
[10] = biological target: human CD33 R225A (human, UniProt P20138 18-364)
[11] = biological target: human CD33 T200A (human, UniProt P20138 18-364)
[12] = biological target: human CD33 F177A (human, UniProt P20138 18-364)
[13] = biological target: human CD33 T191A (human, UniProt P20138 18-364)
[14] = biological target: human CD33 P174A (human, UniProt P20138 18-364)
[15] = biological target: human CD33 Y233A (human, UniProt P20138 18-364)
[16] = biological target: human CD33 G241A (human, UniProt P20138 18-364)
[17] = biological target: human CD33 T223A (human, UniProt P20138 18-364)
[18] = biological target: human CD33 I281A (human, UniProt P20138 18-364)
[19] = biological target: human CD33 F243A (human, UniProt P20138 18-364)
[20] = biological target: human CD33 G266A (human, UniProt P20138 18-364)
[21] = biological target: human CD33 L270A (human, UniProt P20138 18-364)
[22] = biological target: human CD33 T292A (human, UniProt P20138 18-364)
[23] = biological target: human CD33 Q311A (human, UniProt P20138 18-364)
[24] = biological target: human CD33 H310A (human, UniProt P20138 18-364)
[25] = biological target: human CD33 S305A (human, UniProt P20138 18-364)
[26] = biological target: human CD33 L275A (human, UniProt P20138 18-364)
[27] = biological target: human CD33 F280A (human, UniProt P20138 18-364)
[28] = biological target: human CD33 A265S (human, UniProt P20138 18-364)
[29] = biological target: human CD33 A290S (human, UniProt P20138 18-364)
[30] = biological target: human CD33 D246A (human, UniProt P20138 18-364)
[31] = biological target: human CD33 A261S (human, UniProt P20138 18-364)
[32] = biological target: human CD33 V267A (human, UniProt P20138 18-364)
[33] = biological target: human CD33 S307A (human, UniProt P20138 18-364)
[34] = biological target: human CD33 K250A (human, UniProt P20138 18-364)
[35] = biological target: human CD33 T284A (human, UniProt P20138 18-364)
[36] = biological target: human CD33 L277A (human, UniProt P20138 18-364)

Sequence of human CD33 F177A (P20138 18-364 F177A limits assumed): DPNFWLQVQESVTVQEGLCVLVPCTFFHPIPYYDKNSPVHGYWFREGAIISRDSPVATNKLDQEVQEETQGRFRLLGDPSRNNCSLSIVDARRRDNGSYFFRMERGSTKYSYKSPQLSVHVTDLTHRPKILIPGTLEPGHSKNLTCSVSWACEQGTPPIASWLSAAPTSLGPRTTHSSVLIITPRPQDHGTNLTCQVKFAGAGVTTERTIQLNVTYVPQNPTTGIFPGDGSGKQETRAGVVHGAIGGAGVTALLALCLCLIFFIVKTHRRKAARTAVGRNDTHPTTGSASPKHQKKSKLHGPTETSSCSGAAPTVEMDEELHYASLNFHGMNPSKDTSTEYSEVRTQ
Sequence of human CD33 T200A (P20138 18-364 T200A limits assumed): as the sequence (P20138 18-364 F177A limits assumed) above, with A160F, T183A counted along it
Sequence of human CD33 G207A (P20138 18-364 G207A limits assumed): as the sequence (P20138 18-364 F177A limits assumed) above, with A160F, G190A counted along it
Sequence of human CD33 R225A (P20138 18-364 R225A limits assumed): as the sequence (P20138 18-364 F177A limits assumed) above, with A160F, R208A counted along it
Sequence of human CD33 Q204A (P20138 18-364 Q204A limits assumed): as the sequence (P20138 18-364 F177A limits assumed) above, with A160F, Q187A counted along it
Sequence of human CD33 E170A (P20138 18-364 E170A limits assumed): as the sequence (P20138 18-364 F177A limits assumed) above, with E153A, A160F counted along it
Sequence of human CD33 G241A (P20138 18-364 G241A limits assumed): as the sequence (P20138 18-364 F177A limits assumed) above, with A160F, G224A counted along it
Sequence of human CD33 T223A (P20138 18-364 T223A limits assumed): as the sequence (P20138 18-364 F177A limits assumed) above, with A160F, T206A counted along it
Sequence of human CD33 P184A (P20138 18-364 P184A limits assumed): as the sequence (P20138 18-364 F177A limits assumed) above, with A160F, P167A counted along it
Sequence of human CD33 I242A (P20138 18-364 I242A limits assumed): as the sequence (P20138 18-364 F177A limits assumed) above, with A160F, I225A counted along it
Sequence of human CD33 P174A (P20138 18-364 P174A limits assumed): as the sequence (P20138 18-364 F177A limits assumed) above, with P157A, A160F counted along it
Sequence of human CD33 P238A (P20138 18-364 P238A limits assumed): as the sequence (P20138 18-364 F177A limits assumed) above, with A160F, P221A counted along it
Sequence of human CD33 Y233A (P20138 18-364 Y233A limits assumed): as the sequence (P20138 18-364 F177A limits assumed) above, with A160F, Y216A counted along it
Sequence of human CD33 L210A (P20138 18-364 L210A limits assumed): as the sequence (P20138 18-364 F177A limits assumed) above, with A160F, L193A counted along it

B3: Refmab #1 (antibody, V domains shown)
VH: EVQLVQSGAEVKKPGSSVKVSCKASGYTITDSNIHWVRQAPGQSLEWIGYIYPYNGGTDYNQKFKNRATLTVDNPTNTAYMELSSLRSEDTAFYYCVNGNPWLAYWGQGTLVTVSS
VL: DIQLTQSPSTLSASVGDRVTITCRASESLDNYGIRFLTWFQQKPGKAPKLLMYAASNQGSGVPSRFSGSGSGTEFTLTISSLQPDDFATYYCQQTKEVPWSFGQGTKVEVK
notes: In the alanine scan antibodies were used as IgG or Fab; also called hP67.6
Mean % WT Binding [1]: 88.7%
Mean % WT Binding [2]: 77.9%
Mean % WT Binding [3]: 84.5%
Mean % WT Binding [4]: 90.9%
Mean % WT Binding [5]: 94.1%
Mean % WT Binding [6]: 93.7%
Mean % WT Binding [7]: 93%
Mean % WT Binding [8]: 101%
Mean % WT Binding [9]: 82.9%
Mean % WT Binding [10]: 97.8%
Mean % WT Binding [11]: 85.2%
Mean % WT Binding [12]: 68.4%
Mean % WT Binding [13]: 91.4%
Mean % WT Binding [14]: 90.9%
Mean % WT Binding [15]: 115%
Mean % WT Binding [16]: 102%
Mean % WT Binding [17]: 103%

B4: Refmab #1 (antibody, V domains shown)
VH: B3 VH
VL: B3 VL
notes: The alanine scan used IgG or Fab; also called hP67.6
Mean % WT Binding [18]: 85 % WT binding
Mean % WT Binding [19]: 86.5 % WT binding
Mean % WT Binding [20]: 100 % WT binding
Mean % WT Binding [21]: 102 % WT binding
Mean % WT Binding [22]: 89.5 % WT binding
Mean % WT Binding [23]: 90.4 % WT binding
Mean % WT Binding [24]: 97.4 % WT binding
Mean % WT Binding [25]: 86.4 % WT binding
Mean % WT Binding [26]: 88.7 % WT binding
Mean % WT Binding [27]: 98.4 % WT binding
Mean % WT Binding [28]: 93.2 % WT binding
Mean % WT Binding [29]: 105 % WT binding
Mean % WT Binding [30]: 85.2 % WT binding
Mean % WT Binding [31]: 84.1 % WT binding
Mean % WT Binding [32]: 88.3 % WT binding
Mean % WT Binding [33]: 94.8 % WT binding
Mean % WT Binding [34]: 86.7 % WT binding
Mean % WT Binding [35]: 92.8 % WT binding
Mean % WT Binding [36]: 85.5 % WT binding

B5: Refmab #2 (antibody, V domains shown)
VH: QVQLVQSGAEVKKPGSSVKVSCKASGGTFSDYAISWVRQAPGQGLEWMGRIIPILGVADYAQKFQGRVTITADKSTRTAYMELSSLRSEDTAVYYCARNWADAFDIWGQGTMVTVSS
VL: DIQLTQSPSSLSASVGDRVTITCRASQGISSVLAWYQQKPGKAPKLLIYDASSLESGVPSRFSGSGSGTDFTLTISSLQPEDFATYYCQQFDSSITFGQGTKLEIK
notes: In the alanine scan antibodies were used as IgG or Fab
Mean % WT Binding [1]: 121%
Mean % WT Binding [2]: 98.6%
Mean % WT Binding [3]: 98.4%
Mean % WT Binding [4]: 123%
Mean % WT Binding [5]: 109%
Mean % WT Binding [6]: 112%
Mean % WT Binding [7]: 98.2%
Mean % WT Binding [8]: 119%
Mean % WT Binding [9]: 111%
Mean % WT Binding [10]: 123%
Mean % WT Binding [11]: 111%
Mean % WT Binding [12]: 67.5%
Mean % WT Binding [13]: 114%
Mean % WT Binding [14]: 117%
Mean % WT Binding [15]: 107%
Mean % WT Binding [16]: 111%
Mean % WT Binding [17]: 126%

B6: Refmab #2 (antibody, V domains shown)
VH: B5 VH
VL: B5 VL
notes: The alanine scan used IgG or Fab
Mean % WT Binding [18]: 114 % WT binding
Mean % WT Binding [19]: 102 % WT binding
Mean % WT Binding [20]: 116 % WT binding
Mean % WT Binding [21]: 119 % WT binding
Mean % WT Binding [22]: 94.2 % WT binding
Mean % WT Binding [23]: 99.5 % WT binding
Mean % WT Binding [24]: 112 % WT binding
Mean % WT Binding [25]: 107 % WT binding
Mean % WT Binding [26]: 115 % WT binding
Mean % WT Binding [27]: 120 % WT binding
Mean % WT Binding [28]: 104 % WT binding
Mean % WT Binding [29]: 120 % WT binding
Mean % WT Binding [30]: 114 % WT binding
Mean % WT Binding [31]: 100 % WT binding
Mean % WT Binding [32]: 114 % WT binding
Mean % WT Binding [33]: 112 % WT binding
Mean % WT Binding [34]: 108 % WT binding
Mean % WT Binding [35]: 119 % WT binding
Mean % WT Binding [36]: 117 % WT binding

The remaining lines, values ahead:

Mean % WT Binding [1]: 109%
Mean % WT Binding [2]: 104%
Mean % WT Binding [3]: 96.7%
Mean % WT Binding [4]: 95.5%
Mean % WT Binding [5]: 87.1%
Mean % WT Binding [6]: 99.8%
Mean % WT Binding [7]: 92.3%
Mean % WT Binding [8]: 117%
Mean % WT Binding [9]: 79.4%
Mean % WT Binding [10]: 108%
Mean % WT Binding [11]: 88.8%
Mean % WT Binding [12]: 25.4%
Mean % WT Binding [13]: 95.1%
Mean % WT Binding [14]: 118%
Mean % WT Binding [15]: 98.5%
Mean % WT Binding [16]: 109%
Mean % WT Binding [17]: 106%
B1: Refmab #4 (antibody, V domains shown)
VH: QVQLVQSGAEVKKPGESVKVSCKASGYTFTNYGMNWVKQAPGQGLEWMGWINTYTGEPTYADKFQGRVTMTTDTSTSTAYMEIRNLGGDDTAVYYCARWSWSDGYYVYFDYWGQGTSVTVSS
VL: DIVMTQSPDSLTVSLGERTTINCKSSQSVLDSSTNKNSLAWYQQKPGQPPKLLLSWASTRESGIPDRFSGSGSGTDFTLTIDSPQPEDSATYYCQQSAHFPITFGQGTRLEIK
notes: as for B5

Mean % WT Binding [1]: 117%
Mean % WT Binding [2]: 128%
Mean % WT Binding [3]: 79.8%
Mean % WT Binding [4]: 148%
Mean % WT Binding [5]: 105%
Mean % WT Binding [6]: 126%
Mean % WT Binding [7]: 84%
Mean % WT Binding [8]: 122%
Mean % WT Binding [9]: 103%
Mean % WT Binding [10]: 98.9%
Mean % WT Binding [11]: 82.4%
Mean % WT Binding [12]: 60.4%
Mean % WT Binding [13]: 80%
Mean % WT Binding [14]: 110%
Mean % WT Binding [15]: 146%
Mean % WT Binding [16]: 128%
Mean % WT Binding [17]: 93.5%
B2: Refmab #3 (antibody, V domains shown)
VH: QVQLVQSGAEVKKPGSSVKVSCKASGYTFTDYNMHWVRQAPGQGLEWIGYIYPYNGGTGYNQKFKSKATITADESTNTAYMELSSLRSEDTAVYYCARGRPAMDYWGQGTLVTVSS
VL: DIQMTQSPSSLSASVGDRVTITCRASESVDNYGISFMNWFQQKPGKAPKLLIYAASNQGSGVPSRFSGSGSGTDFTLTISSLQPDDFATYYCQQSKEVPWTFGQGTKVEIK
notes: as for B5

Reference: patent US20260242735A1 (UNIVERSIT T BASEL, published 2026)
